The results in this text go back to patent publication US6692962.

In the assay the target is wild type (51S) wheat eIF2α (alpha subunit of wheat eukaryotic initiation factor 2) (wheat). The assay can be described thus: cell-based or functional assay.

Substance “PKR (IPTG-inducible, expressed from recombinant vaccinia virus WR 68K) (from UniProt P19525 2-551) (enzyme)” showed a phosphorylated peIF2α 51S, densitometric analyses of western blots (HeLa cells) of 3.8 fold.
